Test results published in publication PMC5875430 (Leukemia, 2013).

What was measured:
[1] = target: T1, class IV granulocyte colony-stimulating factor receptor (alternatively spliced, truncated isoform) (human, UniProt Q99062-4 25-783); assay: radioligand binding
T1 sequence (looked up): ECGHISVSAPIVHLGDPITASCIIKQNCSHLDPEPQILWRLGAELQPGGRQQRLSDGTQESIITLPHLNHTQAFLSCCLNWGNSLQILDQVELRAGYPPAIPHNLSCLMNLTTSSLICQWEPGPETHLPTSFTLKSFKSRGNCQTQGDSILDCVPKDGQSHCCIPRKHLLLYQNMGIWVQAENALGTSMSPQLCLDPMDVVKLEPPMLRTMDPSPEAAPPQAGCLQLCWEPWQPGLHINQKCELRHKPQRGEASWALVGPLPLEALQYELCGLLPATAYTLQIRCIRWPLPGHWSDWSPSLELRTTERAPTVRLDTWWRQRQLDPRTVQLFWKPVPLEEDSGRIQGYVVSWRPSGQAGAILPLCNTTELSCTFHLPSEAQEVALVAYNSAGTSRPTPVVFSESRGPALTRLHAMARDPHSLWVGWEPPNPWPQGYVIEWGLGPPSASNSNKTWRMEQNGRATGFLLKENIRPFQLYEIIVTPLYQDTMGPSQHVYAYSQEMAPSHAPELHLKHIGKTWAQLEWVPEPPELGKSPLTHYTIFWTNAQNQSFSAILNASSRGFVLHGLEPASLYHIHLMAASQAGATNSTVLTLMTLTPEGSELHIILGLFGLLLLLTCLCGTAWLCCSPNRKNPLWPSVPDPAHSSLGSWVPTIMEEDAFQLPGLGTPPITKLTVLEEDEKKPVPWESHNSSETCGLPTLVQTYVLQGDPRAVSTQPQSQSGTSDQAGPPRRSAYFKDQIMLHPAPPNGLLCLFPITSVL

[2] = target: T2, class I granulocyte colony-stimulating factor receptor (canonical, full-length isoform) (human, UniProt Q99062 25-836); assay: radioligand binding
T2 sequence (looked up): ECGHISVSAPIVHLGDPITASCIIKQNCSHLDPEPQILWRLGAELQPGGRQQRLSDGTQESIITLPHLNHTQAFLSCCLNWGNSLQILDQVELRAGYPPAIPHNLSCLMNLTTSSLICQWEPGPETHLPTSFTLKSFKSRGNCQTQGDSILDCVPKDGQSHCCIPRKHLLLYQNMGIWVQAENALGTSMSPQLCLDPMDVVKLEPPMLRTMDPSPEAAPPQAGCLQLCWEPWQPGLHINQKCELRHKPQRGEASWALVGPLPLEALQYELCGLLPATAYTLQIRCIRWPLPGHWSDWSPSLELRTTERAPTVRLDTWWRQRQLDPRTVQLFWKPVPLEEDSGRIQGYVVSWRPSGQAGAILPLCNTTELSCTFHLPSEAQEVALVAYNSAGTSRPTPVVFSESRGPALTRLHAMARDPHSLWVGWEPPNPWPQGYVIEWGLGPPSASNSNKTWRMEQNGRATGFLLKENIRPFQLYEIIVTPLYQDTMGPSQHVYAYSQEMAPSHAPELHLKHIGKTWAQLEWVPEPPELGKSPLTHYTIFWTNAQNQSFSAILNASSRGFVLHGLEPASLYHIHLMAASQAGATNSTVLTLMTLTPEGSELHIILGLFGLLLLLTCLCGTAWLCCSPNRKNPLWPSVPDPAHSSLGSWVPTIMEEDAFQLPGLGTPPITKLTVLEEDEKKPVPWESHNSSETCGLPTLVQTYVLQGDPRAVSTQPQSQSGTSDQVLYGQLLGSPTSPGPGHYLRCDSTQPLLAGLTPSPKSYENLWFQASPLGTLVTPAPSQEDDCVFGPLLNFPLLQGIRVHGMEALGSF

Kd [1]: 0.53 nM
Kd [2]: 0.58 nM
B1: human granulocyte colony-stimulating factor (ligand, UniProt P09919 31-207, looked up)
chain: TPLGPASSLPQSFLLKCLEQVRKIQGDGAALQEKLVSECATYKLCHPEELVLLGHSLGIPWAPLSSCPSQALQLAGCLSQLHSGLFLYQGLLQALEGISPELGPTLDTLQLDVADFATTIWQQMEELGMAPALQPTQGAMPAFASAFQRRAGGVLVASHLQSFLEVSYRVLRHLAQP
modifications: 125I Bolton-Hunter reagent label (site not stated)
